The text below walks through data of PMC12282171, “VCY mediates inhibition of PFV replication via interaction with the transcription activator Tas” (Journal of Virology, 2025).

The target of the assay is His-VCY (human, UniProt O14598 1-125). The experiment in a line: pull-down; purified His-VCY added to purified GST-Tas or GST coupled to glutathione sepharose, 3 h at 4 °C; western blot. Particulars: both partners purified. On the technique in general: Immunoblotting shows a protein as a band on a membrane.

B1: GST-Tas (natural protein)
chain: MDSYEKEESVASTSGIQDLQTLSELVGPENAGEGELTIAEEPEENPRRPRRYTKREVKCVSYHAYKEIEDKHPQHIKLQDWIPTPEEMSKSLCKRLILCGLYSAEKASEILRMPFTVSWEQSDTDPDCFIVSYTCIFCDAVIHDPMPIRWDPEVGIWVKYKPLRGIVGSAVFIMHKHQRNCSLVKPSTSCSEGPKPRPRHDPVLRCDMFEKHHKPRQKRPRRRSIDNESCASSSDTMANEPGSLCTNPLWNPGPLLSGLLEESSNLPNLEVHMSGGPFWEEVYGDSILGPPSGSGEHSVL
notes: also called recombinant GST-Tas; pGST-Tas; source: E. coli BL21, purified (GST column)
As for B1, the binding result is “binds”.
